Measured values taken from article PMC8002998.

Biological target: T1, OhrR-C (chromosomal OhrR) (Acinetobacter baumannii ATCC 19606) (UniProt A0A077GRS4)
T1 sequence: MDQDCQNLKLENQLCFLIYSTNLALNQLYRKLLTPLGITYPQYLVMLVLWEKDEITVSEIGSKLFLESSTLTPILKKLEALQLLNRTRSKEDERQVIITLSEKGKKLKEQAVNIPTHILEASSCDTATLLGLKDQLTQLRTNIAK
Assay: EMSA
Conditions: 20 mM Tris-HCl pH 7.5, 100 mM MgCl2, 150 mM KCl, 50 mM EDTA, 12.5% glycerol, 250 uM DTT, 830 ng/mL poly(dI-dC), 250 ng/mL BSA, 50 nM DNA; room temperature …

Sequence: TGTATATTACCTTGCTTAATATTATATTGTGTAAAATATAATTGCACACAATTAAATATAGGTCAATTATTTTCCTTTGTTTTTTATTTAACATAATGGGCGTTATATGAAATTCAAAAAAATGATACTATTTTTGTGATAATTAAATAAATTTTAGGTGAACATAAGTTAAATAGAGCTTATATCGGCC (double strand) [Pohr-p]
- binding: binds more weakly
